Laboratory results taken from publication PMC4869175, “Evidence that phytochrome functions as a protein kinase in plant light signalling” (Nature Communications, 2016).

Columns and labels:
[1] = biological target: T1, Avena sativa phytochrome A, full-length wild type (Avena sativa, UniProt P06593 1-1129, phycocyanobilin chromophore assembled (chromophore-binding site C322)); test: pull-down; GST/strep-fused interacting protein (1.0 μg) held on glutathione resin, phytochrome (1.0 μg) in solution, Pr and Pfr forms both tested; 60 min at 4 °C in pull-down buffer (100 mM Tris-HCl pH 7.8, 1 mM EDTA, 150 mM NaCl, 100 μg/ml BSA); western blot with oat22 and anti-GST; details: both partners purified
T1 construct: Avena sativa (oat) phytochrome A, full-length gene AsPHYA; 1129 residues by the printed construct limits (66-1129aa); Used as Pr (far-red irradiated) and Pfr (red irradiated) forms; also called AsphyA; FL-AsphyA; source: phycocyanobilin added in vitro
T1 sequence (looked up): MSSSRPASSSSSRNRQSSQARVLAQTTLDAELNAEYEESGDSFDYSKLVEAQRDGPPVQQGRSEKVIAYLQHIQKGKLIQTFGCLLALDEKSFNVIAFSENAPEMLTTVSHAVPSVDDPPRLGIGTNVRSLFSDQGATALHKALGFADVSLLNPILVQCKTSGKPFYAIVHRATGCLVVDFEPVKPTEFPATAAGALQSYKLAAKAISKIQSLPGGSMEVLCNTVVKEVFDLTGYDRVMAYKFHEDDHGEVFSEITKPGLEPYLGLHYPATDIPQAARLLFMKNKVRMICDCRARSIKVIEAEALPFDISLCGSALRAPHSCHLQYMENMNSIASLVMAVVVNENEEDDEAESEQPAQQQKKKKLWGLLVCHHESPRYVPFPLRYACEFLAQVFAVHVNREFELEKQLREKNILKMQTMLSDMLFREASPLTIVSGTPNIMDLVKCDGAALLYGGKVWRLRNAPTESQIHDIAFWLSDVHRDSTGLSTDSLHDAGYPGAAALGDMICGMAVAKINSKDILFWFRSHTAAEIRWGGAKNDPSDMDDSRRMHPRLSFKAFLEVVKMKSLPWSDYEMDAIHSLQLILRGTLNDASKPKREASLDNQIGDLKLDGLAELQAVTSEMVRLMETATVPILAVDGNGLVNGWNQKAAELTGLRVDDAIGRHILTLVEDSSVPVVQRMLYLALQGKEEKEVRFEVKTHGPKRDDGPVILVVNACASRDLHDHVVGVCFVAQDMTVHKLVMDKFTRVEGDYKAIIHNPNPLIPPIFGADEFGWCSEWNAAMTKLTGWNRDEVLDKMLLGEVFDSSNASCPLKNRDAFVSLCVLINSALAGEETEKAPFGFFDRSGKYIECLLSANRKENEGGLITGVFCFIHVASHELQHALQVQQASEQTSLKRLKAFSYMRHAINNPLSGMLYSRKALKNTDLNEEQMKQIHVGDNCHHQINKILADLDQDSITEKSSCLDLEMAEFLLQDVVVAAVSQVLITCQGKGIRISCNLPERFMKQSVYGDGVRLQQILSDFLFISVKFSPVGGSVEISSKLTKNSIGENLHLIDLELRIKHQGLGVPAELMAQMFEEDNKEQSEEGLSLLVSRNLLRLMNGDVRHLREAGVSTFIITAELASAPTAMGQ

[2] = biological target: T2, AsphyA K411L, full length (Avena sativa, UniProt P06593 1-1129, K411L, phycocyanobilin chromophore assembled); test: as above; details: both partners purified
T2 construct: Avena sativa phytochrome A, full length, with K411L; source: phycocyanobilin added in vitro
T2 sequence (looked up): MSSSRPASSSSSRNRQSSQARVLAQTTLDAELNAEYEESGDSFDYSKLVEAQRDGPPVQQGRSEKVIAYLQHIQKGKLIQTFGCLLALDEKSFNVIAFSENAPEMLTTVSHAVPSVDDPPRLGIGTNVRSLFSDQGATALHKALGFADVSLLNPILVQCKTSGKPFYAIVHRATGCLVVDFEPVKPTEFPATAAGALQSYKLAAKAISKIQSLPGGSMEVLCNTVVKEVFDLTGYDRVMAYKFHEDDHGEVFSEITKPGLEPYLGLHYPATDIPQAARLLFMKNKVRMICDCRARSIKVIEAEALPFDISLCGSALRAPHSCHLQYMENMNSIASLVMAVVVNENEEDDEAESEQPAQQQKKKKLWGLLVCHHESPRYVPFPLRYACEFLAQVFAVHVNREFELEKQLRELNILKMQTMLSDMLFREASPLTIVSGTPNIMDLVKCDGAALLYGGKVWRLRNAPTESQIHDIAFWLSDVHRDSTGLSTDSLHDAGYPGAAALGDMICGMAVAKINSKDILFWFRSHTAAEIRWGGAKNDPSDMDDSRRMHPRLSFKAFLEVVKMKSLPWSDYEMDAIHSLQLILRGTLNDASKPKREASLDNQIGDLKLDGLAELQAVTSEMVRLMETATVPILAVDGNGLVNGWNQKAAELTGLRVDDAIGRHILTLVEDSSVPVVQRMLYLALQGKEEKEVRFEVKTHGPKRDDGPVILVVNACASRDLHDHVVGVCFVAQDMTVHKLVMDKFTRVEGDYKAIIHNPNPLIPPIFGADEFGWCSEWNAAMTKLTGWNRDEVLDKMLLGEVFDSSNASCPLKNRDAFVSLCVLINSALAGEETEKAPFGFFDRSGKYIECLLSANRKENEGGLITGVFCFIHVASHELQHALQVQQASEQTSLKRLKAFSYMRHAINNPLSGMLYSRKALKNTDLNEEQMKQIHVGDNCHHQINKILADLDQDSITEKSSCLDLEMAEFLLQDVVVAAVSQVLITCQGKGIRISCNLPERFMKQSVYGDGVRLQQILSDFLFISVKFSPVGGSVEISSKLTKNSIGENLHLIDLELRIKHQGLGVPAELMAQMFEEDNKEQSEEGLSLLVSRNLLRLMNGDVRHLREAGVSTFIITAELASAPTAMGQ

Binder | binding result [1] | binding result [2]
GST/strep-fused FHL (natural protein, UniProt A8MR65 1-201, looked up, FHL, which with FHY1 takes part in the nuclear localization of phyA; not shown: GST, N-terminal, kept) MDDADKSCSPSLDHSDINDPMIVAVESLDTSKKRKLHAEESDLLPLPKHFCSEHQASLVNSSCPSSVIDYAECSYAMENTKTSDEASSSASFTGPSLYMFKDSIYSTGSSSSGYAATSSIEQCFSKVDHKTQEDTQDFTHMEFIYHDSEFAVEDLQEVLNPVESYILSSARWSVSNQDSKEATTKPTIDQEFEQYFSTLMM | binds | binds
GST/strep-fused FHY1 (far-red elongated hypocotyl 1) (natural protein, UniProt Q8S4Q6 1-202, looked up, FHY1 (far-red elongated hypocotyl 1); not shown: GST, N-terminal, kept) MPEVEVDNNNEKPSEINSFHHMIISSSKNVLKMEEVEVSKKRKFQTDQSDELSLLPLSKHTCFANVACSENTNGNSEIDTEYSMSSYVNSTTSMECNNDIEMKEESSGSCGEDKMISFESHLDYIYGTQNLEDFSEKVIENILYLDEQEEEEEDAKGCSSNAAKFVLSSGRWTVNQDDSTLHETKKPTIDQEFEQYFSTLML | binds | binds
GST/strep-fused PIF3 (natural protein, UniProt O80536 1-524, looked up, Probably Arabidopsis PIF3, as PIF1 and PIF4 are called Arabidopsis; not shown: GST, N-terminal, kept) MPLFELFRLTKAKLESAQDRNPSPPVDEVVELVWENGQISTQSQSSRSRNIPPPQANSSRAREIGNGSKTTMVDEIPMSVPSLMTGLSQDDDFVPWLNHHPSLDGYCSDFLRDVSSPVTVNEQESDMAVNQTAFPLFQRRKDGNESAPAASSSQYNGFQSHSLYGSDRARDLPSQQTNPDRFTQTQEPLITSNKPSLVNFSHFLRPATFAKTTNNNLHDTKEKSPQSPPNVFQTRVLGAKDSEDKVLNESVASATPKDNQKACLISEDSCRKDQESEKAVVCSSVGSGNSLDGPSESPSLSLKRKHSNIQDIDCHSEDVEEESGDGRKEAGPSRTGLGSKRSRSAEVHNLSERRRRDRINEKMRALQELIPNCNKVDKASMLDEAIEYLKSLQLQVQIMSMASGYYLPPAVMFPPGMGHYPAAAAAMAMGMGMPYAMGLPDLSRGGSSVNHGPQFQVSGMQQQPVAMGIPRVSGGGIFAGSSTIGNGSTRDLSGSKDQTTTNNNSNLKPIKRKQGSSDQFCGSS | binds | binds
